The values below come from article PMC10558642 (2023).

B1: recombinant GPX4 protein (SPR and MST) (natural protein)
chain: MSLGRLCRLLKPALLCGALAAPGLAGTMCASRDDWRCARSMHEFSAKDIDGHMVNLDKYRGFVCIVTNVASQUGKTEVNYTQLVDLHARYAECGLRILAFPCNQFGKQEPGSNEEIKEFAAGYNVKFDMFSKICVNGDDAHPLWKWMKIQPKGKGILGNAIKWNFTKFLIDKNGCVVKRYGPMEEPLVIEKDLPHYF
B2: His-OTUD5 (natural protein)
chain: MTILPKKKPPPPDADPANEPPPPGPMPPAPRRGGGVGVGGGGTGVGGGDRDRDSGVVGARPRASPPPQGPLPGPPGALHRWALAVPPGAVAGPRPQQASPPPCGGPGGPGGGPGDALGAAAAGVGAAGVVVGVGGAVGVGGCCSGPGHSKRRRQAPGVGAVGGGSPEREEVGAGYNSEDEYEAAAARIEAMDPATVEQQEHWFEKALRDKKGFIIKQMKEDGACLFRAVADQVYGDQDMHEVVRKHCMDYLMKNADYFSNYVTEDFTTYINRKRKNNCHGNHIEMQAMAEMYNRPVEVYQYSTGTSAVEPINTFHGIHQNEDEPIRVSYHRNIHYNSVVNPNKATIGVGLGLPSFKPGFAEQSLMKNAIKTSEESWIEQQMLEDKKRATDWEATNEAIEEQVARESYLQWLRDQEKQARQVRGPSQPRKASATCSSATAAASSGLEEWTSRSPRQRSSASSPEHPELHAELGMKPPSPGTVLALAKPPSPCAPGTSSQFSAGADRATSPLVSLYPALECRALIQQMSPSAFGLNDWDDDEILASVLAVSQQEYLDSMKKNKVHRDPPPDKS
modifications: Red-tris-NTA dye on the His tag (MST only)

Test [1] has as its target B2. In words: MST.
In test [2] the target is B1. The test can be described thus: SPR.

As usually defined, the Kd is the free concentration of one partner at which half of the binding sites on the other are occupied at equilibrium, for simple one-to-one binding. B1 gave a Kd in test [1] of 230 nM.
On to B2, for which the Kd in test [2] was 720 nM.
